# How the values were obtained:
# [1] = target: human GLP-1 receptor (human, UniProt P43220 24-463); assay: cell-based or functional assay
# [2] = target: human glucagon receptor (human, UniProt P47871 26-477); assay: cell-based or functional assay
# [3] = target: T1, human GIP receptor (human, UniProt P48546 22-466); assay: cell-based or functional assay
# T1 sequence (looked up): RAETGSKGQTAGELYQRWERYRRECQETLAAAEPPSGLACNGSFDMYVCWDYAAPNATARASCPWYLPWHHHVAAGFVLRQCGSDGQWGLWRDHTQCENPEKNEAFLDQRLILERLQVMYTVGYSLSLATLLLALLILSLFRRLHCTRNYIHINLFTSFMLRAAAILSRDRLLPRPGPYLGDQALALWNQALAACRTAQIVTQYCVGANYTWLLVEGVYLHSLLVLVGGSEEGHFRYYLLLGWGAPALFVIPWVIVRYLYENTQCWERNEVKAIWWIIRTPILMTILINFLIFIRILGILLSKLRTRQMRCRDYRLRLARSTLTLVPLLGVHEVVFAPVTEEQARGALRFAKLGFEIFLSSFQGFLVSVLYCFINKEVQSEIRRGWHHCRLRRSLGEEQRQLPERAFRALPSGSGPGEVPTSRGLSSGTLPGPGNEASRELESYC
# [4] = target: T2, human GIP receptor (human, UniProt P48546 22-466); assay: SPA competition vs [125I]-GIP, hGIPR membranes
# T2 construct: whole, on cells; also called hGIPR; human glucose-dependent insulinotropic polypeptide receptor
# T2 sequence (looked up): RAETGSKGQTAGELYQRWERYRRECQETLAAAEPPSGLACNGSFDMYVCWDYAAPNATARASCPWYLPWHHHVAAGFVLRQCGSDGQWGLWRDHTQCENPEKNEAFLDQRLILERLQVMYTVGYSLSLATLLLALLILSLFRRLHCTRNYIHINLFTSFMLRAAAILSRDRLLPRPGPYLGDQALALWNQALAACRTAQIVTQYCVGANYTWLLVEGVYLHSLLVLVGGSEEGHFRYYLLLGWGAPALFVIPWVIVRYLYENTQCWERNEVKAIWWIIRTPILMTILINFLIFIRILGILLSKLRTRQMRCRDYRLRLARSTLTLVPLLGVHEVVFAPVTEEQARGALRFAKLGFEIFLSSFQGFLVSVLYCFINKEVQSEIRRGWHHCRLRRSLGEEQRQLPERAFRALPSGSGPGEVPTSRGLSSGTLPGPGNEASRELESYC
# [5] = target: T3, human GLP-1 receptor (human, UniProt P43220 24-463); assay: SPA competition vs [125I]-GLP-1, hGLP-1R membranes
# T3 construct: whole, on cells; also called hGLP-1R; human glucagon-like peptide-1 receptor
# In short: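 Kᵢ values are geometric means (SEM) over replicates run on separate days, derived from IC₅₀ of four-parameter curve fits. Buffer: HEPES 25 mM pH 7.4 with CaCl₂ 2.5 mM, MgCl₂ 1 mM, bacitracin 0.1%, TWEEN-20 0.003%, EDTA-free protease inhibitors.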
# [6] = target: T4, human glucagon receptor (human, UniProt P47871 26-477); assay: SPA competition vs [125I]-Gcg, hGcgR membranes
# T4 construct: whole, on cells; also called hGCGR; hGcgR
# T4 sequence (P47871 26-477): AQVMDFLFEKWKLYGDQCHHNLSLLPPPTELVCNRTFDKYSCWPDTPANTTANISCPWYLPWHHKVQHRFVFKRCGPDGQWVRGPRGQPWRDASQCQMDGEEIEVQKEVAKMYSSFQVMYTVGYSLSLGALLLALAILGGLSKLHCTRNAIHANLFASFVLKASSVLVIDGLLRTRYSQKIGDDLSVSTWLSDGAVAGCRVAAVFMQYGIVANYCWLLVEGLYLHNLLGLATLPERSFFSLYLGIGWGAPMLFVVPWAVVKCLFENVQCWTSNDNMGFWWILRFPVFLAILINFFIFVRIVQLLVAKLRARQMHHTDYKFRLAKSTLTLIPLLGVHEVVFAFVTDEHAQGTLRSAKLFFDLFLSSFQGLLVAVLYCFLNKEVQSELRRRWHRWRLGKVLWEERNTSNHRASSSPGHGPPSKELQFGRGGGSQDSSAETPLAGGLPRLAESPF
Binder,cAMP EC50 (1.0% HSA) [1] [nM],cAMP Emax (1.0% HSA) [1] [%],cAMP EC50 (1.0% HSA) [2] [nM],cAMP EC50 (1.0% HSA) [3] [nM],cAMP Emax (1.0% HSA) [3] [%],Ki [4] [nM],Ki [5] [nM],Ki [6] [nM]
YXEGTXTSDXXIXLDXIAQXKFIKXLIEGGPSSGAPPPS (Y-Aib-EGT-αMeF(2F)-TSD-4Pal-Aib-I-αMeL-LD-Orn-IAQ-Aib-K((2-[2-(2-Amino-ethoxy)-ethoxy]-acetyl)2-(γ-Glu)-CO-(CH2)12-CO2H)FIK((2-[2-(2-Amino-ethoxy)-ethoxy]-acetyl)2-(γ-Glu)-CO-(CH2)12-CO2H)-αMeY-LIEGGPSSGAPPPS-NH2) [Example 218],36.6,121,> 9950,3.27,95.9,–,–,–
YXEGTXTSDXSIXLDXIAQXKFIXXLIKGGPSSGAPPPS (Y-Aib-EGT-αMeF(2F)-TSD-4Pal-SI-αMeL-LD-Orn-IAQ-Aib-K((2-[2-(2-Amino-ethoxy)-ethoxy]-acetyl)2-CO-(CH2)12-CO2H)Fl-(D-Glu)-αMeY-LIK((2-[2-(2-Amino-ethoxy)-ethoxy]-acetyl)2-CO-(CH2)12-CO2H)GGPSSGAPPPS-NH2 …) [Example 222],13.8,117,> 9950,2.1,–,–,–,–
"YXEGTXTSDXSIXLDXQAQXXFIKXLIKGGPSSGAPPPS (Aib2, αMeF(2F)6, hY10 (so in the source), αMeL13, Orn16, Aib20, Orn21, K24(Z1), αMeY25, K28(Z1), C-term NH2; Z1=AEEA2-(γ-Glu)-CO-(CH2)12-CO2H)",–,–,–,–,–,0.0301,0.182,94.4
"YXEGTXTSDXXIXLDXQAQXXFIKXLIKGGPSSGAPPPS (Aib2, αMeF(2F)6, 4Pal10, Aib11, αMeL13, Orn16, Aib20, 4Pal21, K24(Z1), αMeY25, K28(Z1), C-term NH2; Z1=AEEA2-(γ-Glu)-(10-(4-carboxyphenoxy)decanoyl))",–,–,–,–,–,0.0345,0.25,70.1
YXEGTXTSDYXIXLDXIAQXEFIKXLIKGGPSSGAPPPS (Y-Aib-EGT-αMeF(2F)-TSDY-Aib-I-αMeL-LD-Orn-IAQ-Aib-EFIK((2-[2-(2-Amino-ethoxy)-ethoxy]-acetyl)2-(γ-Glu)-CO-(CH2)12-CO2H)-αMeY-LIK((2-[2-(2-Amino-ethoxy)-ethoxy]-acetyl)2-(γ-Glu)-CO-(CH2)12-CO2H)GGPSSGAPPPS-NH2) [Example 233],56.7,–,> 9950,6.08,91.4,–,–,–
YXEGTXTSDXSIXLDXIAQXKFIXXLIKGGPSSGAPPPS (Y-Aib-EGT-αMeF(2F)-TSD-4Pal-SI-αMeL-LD-Orn-IAQ-Aib-K((2-[2-(2-Amino-ethoxy)-ethoxy]-acetyl)3-(γ-Glu)-CO-(CH2)12-CO2H)FI-(D-Glu)-αMeY-LIK((2-[2-(2-Amino-ethoxy)-ethoxy]-acetyl)3-(γ-Glu)-CO-(CH2)12-CO2H)GGPSSGAPPPS-NH2) [Example 227],41.8,–,> 9950,1.59,–,–,–,–
YXEGTXTSDXSIXLDXIAQXEFIKXLIKGGPSSGAPPPS (Y-Aib-EGT-αMeF(2F)-TSD-2Nal-SI-αMeL-LD-Orn-IAQ-Aib-EFIK((2-[2-(2-Amino-ethoxy)-ethoxy]-acetyl)2-(γ-Glu)-CO-(CH2)12-CO2H)-αMeY-LIK((2-[2-(2-Amino-ethoxy)-ethoxy]-acetyl)2-(γ-Glu)-CO-(CH2)12-CO2H)GGPSSGAPPPS-NH2) [Example 252],131,–,> 9950,29.9,–,–,–,–
YXEGTXTSDXSIXLDXKAQXKFIXXLIEGGPSSGAPPPS (Y-Aib-EGT-αMeF(2F)-TSD-2Nal-SI-αMeL-LD-Orn-K((2-[2-(2-Amino-ethoxy)-ethoxy]-acetyl)2-CO-(CH2)12-CO2H)AQ-Aib-K((2-[2-(2-Amino-ethoxy)-ethoxy]-acetyl)2-CO-(CH2)12-CO2H)FI-(D-Glu)-αMeY-LIEGGPSSGAPPPS-NH2 …) [Example 255],13.7,–,> 9950,2.27,–,–,–,–

# Source: patent publication US20230265151A1, “GIP/GLP1 CO-AGONIST COMPOUNDS” (priority 2020, published 2023)
